Reference: patent US6509447B1, “G protein chimeras and methods of screening compounds” (Glaxo Welcome Inc., priority 1997, dated 2003)

How the values were obtained:
[1] = target: T1, purinergic nucleotide P2Y1 receptor (Homo sapiens, UniProt P47900); assay: CPRG assay, MMY11 cells expressing P2Y1 receptor plus Gα subunit; format: cell-based; design: key: weak activation insufficient to carry out curve-fitting was detected; NC: no coupling was detected
T1 construct: expressed in transfected cells; host or cells: Saccharomyces cerevisiae strain MMY11, plasmid pDT-PGK-P2Y1
Experimental: (§1) Assay for combined FUS1-lacZ and FUS1-HIS3 Expression. In vivo assays of reporter gene induction (CPRG assays) were carried out by suspending cells to 0.02 OD600 in 200 μl SC-glucose (2%) lacking tryptophan, uracil and histidine. This medium was supplemented with agonists, and additionally 10 mM 3-aminotriazole and the β-galactosidase (lacZ) substrate chlorophenolred-β-D-galactopyranoside (CPRG; Boehringer) to a concentration of 0.1 mg/ml. To visualise the colour change reaction, the medium was buffered to pH 7 with 0.1 M sodium phosphate. The assay was conducted in a 96-well microtitre plate format. Plates were incubated for 24 hours without agitation, and absorbance at 570 nm was determined using a Victor microtitre plate reader (Wallac). EC50 values (+/−standard error) were estimated by curve-fitting, using the Robosage software package.
(§2) MMY11 was used in an experiment in which cells were transformed with pairs of plasmids as before, one to express a Gα subunit and the other a receptor expression construct. […] Where pheromone response pathway activation was detected, the agonist concentration required to yield a half-maximal response (EC50+/−standard error; all values in nM except where otherwise indicated) was determined by curve-fitting, and is shown in Table 4A. Where no coupling was detected, this is also indicated (NC).

[2] = test system: purinergic nucleotide P2Y2 receptor; assay: CPRG assay, MMY11 cells expressing P2Y2 receptor plus Gα subunit; format: cell-based, human; design: key: weak activation insufficient to carry out curve-fitting was detected; NC: no coupling was detected
Experimental: as §1, §2

[3] = test system: pheromone response pathway (FUS1-LacZ; Ste2p receptor); assay: ONPG β-galactosidase assay of FUS1-LacZ in extracts of MMY9 cells; format: cell-based, Saccharomyces cerevisiae; conditions: G protein expressed from GPA1 promoter
Experimental: (§3) Assays for FUS1-IacZ Expression. β-galactosidase activities in cell extracts were measured with two assays. In the first assay (ONPG assay), cell extracts were incubated with the substrate ONPG as described by (37). Units were defined as (A420×1000)/(OD600x×t×v) (25). In the chemiluminescent assay, cells were grown to late logarithmic phase and diluted to 0.02 OD600 in 100 μl SC-WH medium in the presence or absence of 1 μM α-factor in 96-well microtitre plates. After incubation (30° C.; 6 hours), 20 μl of cells were removed and mixed with 20 μl assay mix (125 mM sodium phosphate pH 7.6, 15 mM MgSO4, 200 μM Galacton-Star β-galactosidase substrate (Tropix), 10% (v/v) Sapphire II (Tropix), 1 U/μl oxalyticase (Enzogenetics)). After incubation (30° C.; 1 hr) chemiluminescence was determined in a Top-count scintillation counter (Packard).
The Gα15/Gα16 subunits are reported to interact with a much broader range of receptors than is typical for a Gα subunit, and have the ability to couple receptors which normally interact with Gαi, Gαs or Gαq (26). […] We constructed a plasmid encoding a Gpa1/Gα16 C-terminal domain chimera (pRS314-Gpa1/Gα16; FIG. 5b); FIG. 6h) derived from the same centromeric vector as used for expression of functional chimeras described above. The level of FUS1-LacZ induction in MMY9 cells expressing the Gpa1/Gα16 chimera was determined by preparing cell extracts, and incubating them with the LacZ substrate o-Nitrophenyl β-D-galactopyranoside (ONPG; see Materials and Methods). Gpa1/Gα16 reduced FUS1-LacZ expression resulting in β-galactosidase activity of 79+/−8 units (Table 2). This level was intermediate between the activity of control cells transformed with vector (239+/−30 units), in which the pathway is constitutively activated due to the absence of Gα, and the basal activity in cells producing wild-type Gpa1p (19+/−4 units).

[4] = test system: pheromone response pathway; assay: Chemiluminescent β-galactosidase assay of FUS1-LacZ in MMY9 cells; format: cell-based, Saccharomyces cerevisiae; conditions: GPA1 promoter, mean ±SD, n≧5
Experimental: as §3
A Gpa1/Gαs chimera has been reported to couple the growth hormone releasing hormone receptor (12) when expressed from the strong constitutive promoter of the yeast phosphoglycerate kinase (PGK1) gene. We constructed Gpa1/Gαs and Gpa1/Gαq chimeras similar to those described above (FIG. 5b) and expressed them in MMY9 cells from the promoter of the GPA1 gene. We assayed FUS1-LacZ activity in these cells using a chemiluminescent assay, rather than the ONPG assay described above. […]

T1 sequence (P47900 whole entry): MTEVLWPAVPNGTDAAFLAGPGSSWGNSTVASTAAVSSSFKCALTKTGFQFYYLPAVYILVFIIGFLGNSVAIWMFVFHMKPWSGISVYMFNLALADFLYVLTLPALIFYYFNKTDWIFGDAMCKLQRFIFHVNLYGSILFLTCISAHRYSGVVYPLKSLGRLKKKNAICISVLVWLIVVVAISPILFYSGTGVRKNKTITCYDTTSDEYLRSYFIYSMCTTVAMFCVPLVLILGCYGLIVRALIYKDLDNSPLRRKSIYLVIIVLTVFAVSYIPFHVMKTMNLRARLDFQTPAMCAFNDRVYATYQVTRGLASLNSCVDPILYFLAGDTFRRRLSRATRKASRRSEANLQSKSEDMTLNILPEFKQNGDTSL
purinergic nucleotide P2Y2 receptor, sequence (P41231 1-347 limits assumed): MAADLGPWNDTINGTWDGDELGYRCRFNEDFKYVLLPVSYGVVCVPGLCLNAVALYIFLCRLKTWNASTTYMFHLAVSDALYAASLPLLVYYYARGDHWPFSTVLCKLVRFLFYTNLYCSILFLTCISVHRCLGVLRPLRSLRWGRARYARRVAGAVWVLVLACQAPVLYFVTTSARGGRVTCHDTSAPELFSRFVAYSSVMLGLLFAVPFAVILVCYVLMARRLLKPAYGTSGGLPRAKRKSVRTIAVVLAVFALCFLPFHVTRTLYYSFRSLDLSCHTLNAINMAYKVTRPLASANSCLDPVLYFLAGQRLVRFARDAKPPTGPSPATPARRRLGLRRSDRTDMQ

B1: Gpa1p: endogenous yeast Gα subunit, product of the GPA1 gene (protein, UniProt P08539 2-472, looked up)
Guanine nucleotide-binding …: GCTVSTQTIGDESDPFLQNKRANDVIEQSLQLEKQRDKNEIKLLLLGAGESGKSTVLKQLKLLHQGGFSHQERLQYAQVIWADAIQSMKILIIQARKLGIQLDCDDPINNKDLFACKRILLKAKALDYINASVAGGSDFLNDYVLKYSERYETRRRVQSTGRAKAAFDEDGNISNVKSDTDRDAETVTQNEDADRNNSSRINLQDICKDLNQEGDDQMFVRKTSREIQGQNRRNLIHEDIAKAIKQLWNNDKGIKQCFARSNEFQLEGSAAYYFDNIEKFASPNYVCTDEDILKGRIKTTGITETEFNIGSSKFKVLDAGGQRSERKKWIHCFEGITAVLFVLAMSEYDQMLFEDERVNRMHESIMLFDTLLNSKWFKDTPFILFLNKIDLFEEKVKSMPIRKYFPDYQGRVGDAEAGLKYFEKIFLSLNKTNKPIYVKRTCATDTQTMKFVLSAVTDLIIQQNLKKIGII
coupling class where no EC50 could be fitted [1]: NC
coupling class where no EC50 could be fitted [2]: weak
β-galactosidase activity (FUS1-LacZ), No Alpha Factor [3]: 19+/−4 units
β-galactosidase activity (FUS1-LacZ), Plus Alpha Factor [3]: 273 +/− 49 units
β-galactosidase activity (FUS1-LacZ), No Alpha Factor ([3]; listed as GPA1): 19 +/− 4 units
FUS1-LacZ Activity, 1 μM α-factor [4]: 27.2 ± 1.7 light units (×10^6 cps)
FUS1-LacZ Activity, No α-factor [4]: 0.73 ± 0.25 light units (×10^6 cps)
